Holding throughout (experiment): SDS-PAGE under non-reducing conditions
Assay [1] addresses FG-IncD ΔC (aa 1-91) (Chlamydia trachomatis).
For assay [2], the target named is FG-IncD ΔN (38-146) (Chlamydia trachomatis).
Assay [3] has as its target FG-IncD M (FLAG-tagged TM region of IncD) (Chlamydia trachomatis).

The stoichiometry N is a count of units in the complex or per binding partner. On to “FG-IncD ΔC (aa 1-91) (domain or fragment)”, for which, in assay [1], the stoichiometry N was 2.
Regarding “FG-IncD ΔN (38-146) (domain or fragment)”, the stoichiometry N in assay [2] was 2.
In assay [3], “FG-IncD M (FLAG-tagged TM region of IncD) (domain or fragment)” returned a stoichiometry N of 2.
